In US8465981B2, “Polypeptides, systems, and methods useful for detecting glucose” (University of Kentucky Research Foundation, priority 2007, dated 2013):

B1: SEQ ID NO: 3, where all natural tryptophans are replaced with 5-fluorotryptophans: unnatural analogue fragment of wtGBP, MDCC labeled (protein)
chain: DNFMSVVRKAIEQDAKAAPDVQLLMNDSQNDQSKQNDQIDVLLAKGVKALAINLVDPAAAGTVIEKARGQNVPVVFFNKEPSRKALDSYDKAYYVGTDSKESGIIQGDLIAKHWAANQGWDLNKDGQIQFVLLKGEPGHPDAEARTTYVIKELNDKGIKTEQLQLDTAMWDTAQAKDKMDAWLSGPNANKIEVVIANNDAMAMGAVEALKAHNKSSIPVFGVDALPEALALVKSGALAGTVLN
modifications: all Trp to 5-fluorotryptophan; MDCC label; E. Coli
notes: unnatural analogue fragment of wtGBP, MDCC labeled
B2: SEQ ID NO: 3, where all natural leucines are replaced with 5,5,5-trifluoroleucines: unnatural analogue fragment of wtGBP, MDCC labeled (protein)
chain: B1 chain
modifications: all Leu to 5,5,5-trifluoroleucine; MDCC label; E. Coli
notes: as for B1
B3: tGBP2: fragment of wtGBP from E. coli including amino acids 14-256 of SEQ ID NO: 1 (protein)
chain: B1 chain
modifications: E. Coli
B4: fragment containing amino acids 87-271: fragment containing amino acids 87-271 of wtGBP from E. coli (SEQ ID NO: 1) (protein)
chain: VVFFNKEPSRKALDSYDKAYYVGTDSKESGIIQGDLIAKHWAANQGWDLNKDGQIQFVLLKGEPGCPDAEARTTYVIKELNDKGIKTEQLQLDTAMWDTAQAKDKMDAWLSGPNANKIEVVIANNDAMAMGAVEALKAHNKSSIPVFGVDALPEALALVKSGALAGTVLNDANNQAKATFDLAKN
modifications: E. Coli

Tests used:
Format in all cases: binding
[1] = Fragments of wtGBP in response to glucose: fluorescence quenching of labeled tGBPs; conditions: labeled tGBP 1×10^-7 M
Procedure: (§1) Once the PCR amplified gene fragments were obtained, they were inserted into expression vector pQE70. The constructed expression plasmids were then transformed into the auxotrophic strain of E. coli. Protein expression was performed using medium shift method. A single freshly transformed colony was used to inoculate 5 mL of M9 media supplemented with 0.4% glucose; 1 mM MgSO4; 0.1 mM CaCl2; 1 mM Thiamine; 0.1 volume of a solution containing 0.01% (w/v) each of 20 amino acids, less any amino acid that is to be replaced by unnatural amino acids (e.g., each of 19 amino acids where one is to be replaced); 40 μg/mL of the remaining amino acid(s) (e.g., 20th amino acid), and appropriate amount of antibiotic. T his culture was allowed to grow overnight at 37° C., 250 rpm. 500 mL culture containing the same ingredients was inoculated with the overnight grown 5 mL culture. This culture was then grown until the optical density (OD600) was about 0.5. The cells were then centrifuged at 10000 rpm for 10 min, 25° C., the supernatant was discarded and the cells were resuspended in a 0.9% NaCl solution for washing, and this was repeated three times. The cells were then resuspended in 500 mL M9 minimal media which was supplemented with 0.4% glucose, 1 mM MgSO4, 0.1 mM CaCl2, 1 mM Thiamine, 0.1 volume of a solution containing 0.01% (w/v) each of 20 amino acids less any amino acid(s) to be replaced by unnatural amino acids (e.g., 19 amino acids), appropriate amount of antibiotic, and grown at 37° C. for 30 min to further deplete natural amino acid that has to be replaced by the unnatural amino acid. 1 mM IPTG was then added with 0.1 mM of unnatural amino acid to the culture and was grown overnight at 37° C. The cells were harvested by centrifugation and the protein was purified using Ni-NTA resin since GBP mutant has His-tag. The purified protein was then labeled with fluorophore MDCC (N-[2-(1-maleimidyl(ethyl]-7-(diethylamino)coumarin-3-carboxamide), e.g., labeled at cysteine-152 of SEQ ID NO: 1.
Fragments of wtGBP in Response to Glucose. In order to check for activity of the labeled tGBPs, an assay was performed. Upon glucose binding, the proteins should undergo a conformational change, resulting in a change in the local environment of the fluorophore molecule, which leads to a change in the fluorescence signal observed. The assay was carried out by preparing glucose solutions of concentrations ranging from 1×10^−1M to 1×10^−6M. These glucose standards were then added to 180 μL samples of the labeled tGBPs at a concentration of 1×10^−7M. The resulting fluorescence intensity was measured. The results obtained from one study including the isolated polypeptide molecules of SEQ ID NO: 2 (tGBP1) and SEQ ID NO: 3 (tGBP2) are presented in Table C.

[2] = Unnatural analogues of wtGBP in response to glucose: fluorescence dose response; conditions: labeled protein 5×10^-7 M, glucose 10^-2 M-10^-8 M, 15 min, room temperature
Excerpt: Unnatural Analogues of wtGBP with Unnatural Tryptophans. Unnatural analogues of wtGBP from E. coli were produced, where natural tryptophans were replaced with unnatural tryptophans. Tryptophan auxotrophic strain of E. coli (#27873) was obtained. Plasmid placI and plasmid pQE70 containing the genetic sequence of the wtGBP mutated at 152 (containing a cysteine in this position for fluorophore attachment) were transformed into the tryptophan auxotrophic strain of E. coli. Protein expression was performed using medium shift method. A single freshly transformed colony was used to inoculate 5 mL of M9 media supplemented with 0.4% glucose, 1 mM MgSO4, 0.1 mM CaCl2, 1 mM Thiamine, 0.1 volume of a solution containing 0.01% (w/v) each of 18 amino acids (less Trp and Leu), 40 μg/mL Leu, 40 μg/mL Trp, 100 μg/mL Ampicillin, and 35 μg/mL Chloramphenicol.
This culture was allowed to grow overnight at 37° C., 250 rpm. 500 mL culture containing the same ingredients was inoculated with the overnight grown 5 mL culture. This culture was then grown till the optical density (OD600) was about 0.5. […]
Unnatural Analogues of wtGBP in Response to Glucose. […] Fluorescence of the samples was then measured using a Carry Eclipse Fluorimeter.

[3] = Fluorescence response to glucose of MDCC-labeled fragment amino acids 87-271 of wtGBP
Excerpt: Expression and Labeling of Isolated Polypeptide Molecules. In order to obtain the gene for insertion into an expression vector, PCR amplification was employed. Primers were designed to amplify isolated polypeptide molecules of interest, e.g., polypeptide molecules of SEQ ID NOS: 1-7, and a fragment including amino acids 87-271 of SEQ ID NO: 1.
as §1

Molecule	Percent Fluorescence Quenching ([1]; Glucose 1 × 10^-1 M) [%]	Percent Fluorescence Quenching ([1]; Glucose 1 × 10^-2 M) [%]	Percent Fluorescence Quenching ([1]; Glucose 1 × 10^-3 M) [%]	Percent Fluorescence Quenching ([1]; Glucose 1 × 10^-4 M) [%]	Percent Fluorescence Quenching ([1]; Glucose 1 × 10^-5 M) [%]	Percent Fluorescence Quenching ([1]; Glucose 1 × 10^-6 M) [%]	Change in fluorescence intensity with increasing concentrations of glucose [2]	other results
tGBP1: fragment of wtGBP from E. coli including amino acids 14-296 of SEQ ID NO: 1	20.37	14.61	7.5538	2.433	2.908	−0.09539		
B1							dose-dependent change in fluorescence intensities	
B2							dose-dependent change in fluorescence intensities	
B3	6.266	7.502	8.966	5.874	2.795	1.748		
B4								Fluorescence Intensity (AVG) ([3]; Glucose Concentration 0 M): 485.282; Fluorescence Intensity (AVG) ([3]; Glucose Concentration 1.00E-03 M): 468.792; Fluorescence Intensity (AVG) ([3]; Glucose Concentration 1.00E-04 M): 467.383; Fluorescence Intensity (AVG) ([3]; Glucose Concentration 1.00E-05 M): 478.877; Fluorescence Intensity (AVG) ([3]; Glucose Concentration 1.00E-06 M): 497.146; Fluorescence Intensity (AVG) ([3]; Glucose Concentration 1.00E-07 M): 463.041; Fluorescence Intensity (AVG) ([3]; Glucose Concentration 1.00E-08 M): 442.682; Response to glucose (trend of fluorescence) ([3]; glucose 0 to 1.00E-03 M): large error and no clear trend in response to glucose
